Assay results: publication PMC12858062 (PLOS Pathogens, 2026)

How the values were obtained:
Test in all cases: far-Western, overlay or dot blot; western blot: non-reduced lysate of P. falciparum NF54 iGP2 stage V gametocytes separated by SDS-PAGE, probed with 0.1 µg/mL antibodies for 1 h at RT; HRP anti-human IgG
Details in all cases: one partner purified
[1] = target: G3-Fc (anti-Pfs48/45 nanobody G3 fused to hinge and Fc of human IgG1) (alpaca)
[2] = target: D4-Fc (anti-Pfs48/45 nanobody D4 fused to hinge and Fc of human IgG1) (alpaca)
[3] = target: C3-Fc (anti-Pfs48/45 nanobody C3 fused to hinge and Fc of human IgG1) (alpaca)
[4] = target: H4-Fc (anti-Pfs48/45 nanobody H4 fused to hinge and Fc of human IgG1) (alpaca)
[5] = target: C1-Fc (anti-Pfs48/45 nanobody C1 fused to hinge and Fc of human IgG1) (alpaca)
[6] = target: C7-Fc (anti-Pfs48/45 nanobody C7 fused to hinge and Fc of human IgG1) (alpaca)
[7] = target: A4-Fc (anti-Pfs48/45 nanobody A4 fused to hinge and Fc of human IgG1) (alpaca)
[8] = target: F6-Fc (anti-Pfs48/45 nanobody F6 fused to hinge and Fc of human IgG1) (alpaca)
[9] = target: B2-Fc (anti-Pfs48/45 nanobody B2 fused to hinge and Fc of human IgG1) (alpaca)
[10] = target: D3-Fc (anti-Pfs48/45 nanobody D3 fused to hinge and Fc of human IgG1) (alpaca)

Measured: binding result

B1: Full-length Pfs48/45 from P. falciparum NF54 iGP2 stage V gametocytes (natural protein)
chain: NNDFCKPSSLNSEISGFIGYKCNFSNEGVHNLKPDMRERRSIFCTIHSYFIYDKIRLIIPKKSSSPEFKILPEKCFQKVYTDYENRVETDISELGLIEYEIEENDTNPNYNERTITISPFSPKDIEFFCFCDNTEKVISSIEGRSAMVHVRVLKYPHNILFTNLTNDLFTYLPKTYNESNFVSNVLEVELNDGELFVLACELINKKCFQEGKEKALYKSNKIIYHKNLTIFKAPFYVTSKDVNTECTCKFKNNNYKIVLKPKYEKKVIHGCNFSSNVSSKHTFTDSLDISLVDDSAHISCNVHLSEPKYNHLVGLNCPGDIIPDCFFQVYQPESEELEPSNIVYLDSQINIGDIEYYEDAEGDDKIKLFGIVGSIPKTTSFTCICKKDKKSAYMTVTID
binds: all assays above
